We go through four molecules from patent US20240209100A1 (DIAGONAL THERAPEUTICS, published 2024).

What all share (test): cell-based or functional assay
For experiment [1], the target named is T1, IL-18 receptor (IL-18Rα/IL-18Rβ) overexpressed on HEK-Blue IL-18 cells (Homo sapiens (Human), UniProt Q13478 19-541; O95256 20-599).
T1 sequence 1: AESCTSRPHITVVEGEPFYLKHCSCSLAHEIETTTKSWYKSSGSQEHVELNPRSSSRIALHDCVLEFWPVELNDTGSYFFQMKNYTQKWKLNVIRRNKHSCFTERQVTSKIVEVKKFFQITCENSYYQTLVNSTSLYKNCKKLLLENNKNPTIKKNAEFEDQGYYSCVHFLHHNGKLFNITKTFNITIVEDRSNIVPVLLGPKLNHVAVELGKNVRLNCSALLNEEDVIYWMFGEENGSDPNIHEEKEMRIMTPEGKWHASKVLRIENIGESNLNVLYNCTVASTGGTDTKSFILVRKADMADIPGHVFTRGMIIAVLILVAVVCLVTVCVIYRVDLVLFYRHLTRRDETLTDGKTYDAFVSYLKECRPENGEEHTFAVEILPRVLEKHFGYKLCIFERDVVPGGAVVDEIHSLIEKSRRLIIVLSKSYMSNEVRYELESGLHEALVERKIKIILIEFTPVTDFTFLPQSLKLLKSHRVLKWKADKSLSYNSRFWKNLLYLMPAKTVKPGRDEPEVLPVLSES
T1 sequence 2: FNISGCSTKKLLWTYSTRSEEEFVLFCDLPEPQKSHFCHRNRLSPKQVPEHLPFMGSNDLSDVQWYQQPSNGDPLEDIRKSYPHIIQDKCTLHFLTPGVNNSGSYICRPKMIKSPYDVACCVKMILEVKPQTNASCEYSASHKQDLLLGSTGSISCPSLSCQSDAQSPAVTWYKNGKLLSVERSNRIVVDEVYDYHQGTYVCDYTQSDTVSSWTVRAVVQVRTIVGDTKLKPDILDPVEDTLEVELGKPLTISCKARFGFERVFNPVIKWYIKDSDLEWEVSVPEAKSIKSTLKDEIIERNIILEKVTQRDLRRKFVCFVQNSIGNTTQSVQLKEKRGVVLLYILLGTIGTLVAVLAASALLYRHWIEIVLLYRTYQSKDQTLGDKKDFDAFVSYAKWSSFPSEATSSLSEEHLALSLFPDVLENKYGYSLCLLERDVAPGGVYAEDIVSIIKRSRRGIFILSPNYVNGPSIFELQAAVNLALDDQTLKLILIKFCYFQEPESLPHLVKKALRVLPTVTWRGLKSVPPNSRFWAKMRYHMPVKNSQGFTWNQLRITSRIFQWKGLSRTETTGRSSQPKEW

The target in experiment [2] is T1, IL-18 receptor (IL-18Rα/IL-18Rβ) …. This is another data set of the same source.
Experiment [3] shares this target. This is another data set of the same source.

B1: DGL020 (bispecific antibody, human IgG1, kappa, L234A L235A)
heavy 1: EVQLVESGGGLVQAGGSLRLSCAASGRTFSDARMGWFRQAPGRERELIAFISWFGSNTNYGSSVKGRFTISRDNTKNTVYLQMNSLKLEDTAVYYCAACRQSICIDSAEYFDDWGQGTQVTVSSDKTHTCPPCPAPEAAGGPSVFLFPPKPKDTLMISRTPEVTCVVVDVSHEDPEVKFNWYVDGVEVHNAKTKPREEQYNSTYRVVSVLTVLHQDWLNGKEYKCKVSNKALPAPIEKTISKAKGQPREPQVCTLPPSRDELTKNQVSLSCAVKGFYPSDIAVEWESNGQPENNYKTTPPVLDSDGSFFLVSKLTVDKSRWQQGNVFSCSVMHEALHNHYTQKSLSLSPG
heavy 2: not shown
light: DIQMTQSPSSLSASVGDRVTITCQATEDIESFLAWYQQKPGQAPKLLIYRASTLESGVPSRFSGSGSGTDFTLTISSLQPEDFATYYCQSTVYGVNFVANAFGGGTKVVIKRTVAAPSVFIFPPSDEQLKSGTASVVCLLNNFYPREAKVQWKVDNALQSGNSQESVTEQDSKDSTYSLSSTLTLSKADYEKHKVYACEVTHQGLSSPVTKSFNRGEC
With B1, in experiment [1], the “HEK-Blue IL-18: Emax (Abs at 630 nm) at 10^8 (average of two replicates)” value worked out at 0.37 Abs at 630 nm.

B2: DGL023 (bispecific antibody, human IgG1, kappa, L234A L235A)
heavy 1: EVQLVESGGGLVQPGGSLRLSCAASGFTRSYYTIAWFRQAPGKEREGISCIRNTDGSTVVSDSVEGRFTISRDNAKNTVFLQMNSLKTEDTAVYYCAARNDRYGGLCSVRHNYEYWGQGTQVTVSSDKTHTCPPCPAPEAAGGPSVFLFPPKPKDTLMISRTPEVTCVVVDVSHEDPEVKFNWYVDGVEVHNAKTKPREEQYNSTYRVVSVLTVLHQDWLNGKEYKCKVSNKALPAPIEKTISKAKGQPREPQVCTLPPSRDELTKNQVSLSCAVKGFYPSDIAVEWESNGQPENNYKTTPPVLDSDGSFFLVSKLTVDKSRWQQGNVFSCSVMHEALHNHYTQKSLSLSPG
heavy 2: not shown
light: DIQMTQSPSSLSASVGDRVTITCQATEDIESFLAWYQQKPGQAPKLLIYRASTLESGVPSRFSGSGSGTDFTLTISSLQPEDFATYYCQSTVYGVNFVANAFGGGTKVVIKRTVAAPSVFIFPPSDEQLKSGTASVVCLLNNFYPREAKVQWKVDNALQSGNSQESVTEQDSKDSTYSLSSTLTLSKADYEKHKVYACEVTHQGLSSPVTKSFNRGEC
Regarding B2, in experiment [1], the “HEK-Blue IL-18: Emax (Abs at 630 nm) at 10^8 (average of two replicates)” value turned out to be 0.37 Abs at 630 nm.

B3: DGL333 (bispecific antibody)
heavy 1: EVQLLESGGGLVQPGGSLRLSCAASGRTFSKHAMGWFRQAPGKGLEFVSAIDWSGGSTYYADSVKGRFTISRDNSKNTVYLQMNSLRAEDTAVYYCAADSYTDYAQLWLPELESEYDYWGQGTLVTVSSCPPCPAPEAAGAPSVFLFPPKPKDTLYITREPEVTCVVVDVSHEDPEVKFNWYVDGVEVHNAKTKPREEQYNSTYRVVSVLTVLHQDWLNGKEYKCKVSNKALPAPIEKTISKAKGQPREPQVCTLPPSRDELTKNQVSLSCAVKGFYPSDIAVEWESNGQPENNYKTTPPVLDSDGSFFLVSKLTVDKSRWQQGNVFSCSVMHEALHNHYTQKSLSLSPG
heavy 2: QLQLLESGGGLVQPGGSLRLSCAASRSITFSHNVMGWYRQAPGKGRELVSSIGSGGSTNYVDSVKGRFTISRDNSKKTLYLQMNSLRAEDTAVYYCGVVVGVYRGSLGQGTLVTVSSCPPCPAPEAAGAPSVFLFPPKPKDTLYITREPEVTCVVVDVSHEDPEVKFNWYVDGVEVHNAKTKPREEQYNSTYRVVSVLTVLHQDWLNGKEYKCKVSNKALPAPIEKTISKAKGQPREPQVYTLPPCRDELTKNQVSLWCLVKGFYPSDIAVEWESNGQPENNYKTTPPVLDSDGSFFLYSKLTVDKSRWQQGNVFSCSVMHEALHNHYTQKSLSLSPG
Consider B3, for which the “EC50 (read off the curve), HEK Blue IL-18 SEAP reporter” value in experiment [2] is roughly 6 nM.

B4: DGL207 (bispecific antibody)
heavy 1: QVQLVESGGGLVQAGGSLRLSCAASGRTFSKHAMGWFRQAPGKEREFVAAIDWSGGSTYYADSVKGRFTISRDNAKNTVYLQMDSLKPEDTAVYYCAADSYTDYAQLWLPELESEYDYWGQGTLVTVSSCPPCPAPEAAGAPSVFLFPPKPKDTLMISRTPEVTCVVVDVSHEDPEVKFNWYVDGVEVHNAKTKPREEQYNSTYRVVSVLTVLHQDWLNGKEYKCKVSNKALPAPIEKTISKAKGQPREPQVCTLPPSRDELTKNQVSLSCAVKGFYPSDIAVEWESNGQPENNYKTTPPVLDSDGSFFLVSKLTVDKSRWQQGNVFSCSVMHEALHNHYTQKSLSLSPGWSHPQFEK
heavy 2: QLQLVESGGGLVQAGGSLRLSCAASRSITFSHNVMGWYRQAPGKQRELVASIGSGGSTNYVDSVKGRATISRDNAKKTVYLQMNSLKPEDTAVYYCGVVVGVYRGSLGQGTLVTVSSCPPCPAPEAAGAPSVFLFPPKPKDTLMISRTPEVTCVVVDVSHEDPEVKFNWYVDGVEVHNAKTKPREEQYNSTYRVVSVLTVLHQDWLNGKEYKCKVSNKALPAPIEKTISKAKGQPREPQVYTLPPCRDELTKNQVSLWCLVKGFYPSDIAVEWESNGQPENNYKTTPPVLDSDGSFFLYSKLTVDKSRWQQGNVFSCSVMHEALHNHYTQKSLSLSPGEPEA
Turning to B4, in experiment [3], the “HEK-Blue IL-18: Abs 405 at 100 nM” value was 2.6 Abs and the “HEK-Blue IL-18: Fold over Background” value turned out to be 11.4 fold. In experiment [2], the “EC50 (read off the curve), HEK Blue IL-18 SEAP reporter” value is roughly 0.5 nM.
